# Laboratory results as given in patent publication US20250368745A1 (published 2025).
# T1: human IL-18BP (human, UniProt O95998 31-194)
# T1 construct: UniProt printed as 095998; also called hIL-18BP
# T1 sequence: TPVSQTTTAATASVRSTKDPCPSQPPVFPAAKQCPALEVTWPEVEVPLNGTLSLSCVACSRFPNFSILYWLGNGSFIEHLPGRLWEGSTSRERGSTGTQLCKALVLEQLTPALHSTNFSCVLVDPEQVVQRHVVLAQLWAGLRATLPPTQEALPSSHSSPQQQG
# Molecular target: T1, human IL-18BP
# Experiment: BLI, apparent KD
row,Binder,Kd [nM]
1,"SA302a HC-S31Q (antibody, V domains shown) VH: QVQLQESGPGLVKPSQTLSLTCTVSGYSITQDYNAHWIRQPPGKGLEWIGYIHYSGSTNYNPSLKSRVTISRDTSKNQFSLKLSSVTAADTAVYYCARNYGSIYVNYFDYWGQGTLVTVSS VL: EIVLTQSPATLSLSPGERATLSCSASSSVSYMYWYQQKPGQAPRPLIYRTSNLASGIPARFSGSGSGTDFTLTISSLEPEDFAVYYCQQYHSYPTFGGGTKVEIK",0.56
2,"SA302a HC-N33bG (antibody, V domains shown) VH: QVQLQESGPGLVKPSQTLSLTCTVSGYSITSDYGAHWIRQPPGKGLEWIGYIHYSGSTNYNPSLKSRVTISRDTSKNQFSLKLSSVTAADTAVYYCARNYGSIYVNYFDYWGQGTLVTVSS VL: EIVLTQSPATLSLSPGERATLSCSASSSVSYMYWYQQKPGQAPRPLIYRTSNLASGIPARFSGSGSGTDFTLTISSLEPEDFAVYYCQQYHSYPTFGGGTKVEIK",2.21
3,"SA302a HC-N33bR (antibody, V domains shown) VH: QVQLQESGPGLVKPSQTLSLTCTVSGYSITSDYRAHWIRQPPGKGLEWIGYIHYSGSTNYNPSLKSRVTISRDTSKNQFSLKLSSVTAADTAVYYCARNYGSIYVNYFDYWGQGTLVTVSS VL: EIVLTQSPATLSLSPGERATLSCSASSSVSYMYWYQQKPGQAPRPLIYRTSNLASGIPARFSGSGSGTDFTLTISSLEPEDFAVYYCQQYHSYPTFGGGTKVEIK",2.23
4,"SA302a HC-Y33aV (antibody, V domains shown) VH: QVQLQESGPGLVKPSQTLSLTCTVSGYSITSDVNAHWIRQPPGKGLEWIGYIHYSGSTNYNPSLKSRVTISRDTSKNQFSLKLSSVTAADTAVYYCARNYGSIYVNYFDYWGQGTLVTVSS VL: EIVLTQSPATLSLSPGERATLSCSASSSVSYMYWYQQKPGQAPRPLIYRTSNLASGIPARFSGSGSGTDFTLTISSLEPEDFAVYYCQQYHSYPTFGGGTKVEIK",4.49
5,"SA302a HC-D33R (antibody, V domains shown) VH: QVQLQESGPGLVKPSQTLSLTCTVSGYSITSRYNAHWIRQPPGKGLEWIGYIHYSGSTNYNPSLKSRVTISRDTSKNQFSLKLSSVTAADTAVYYCARNYGSIYVNYFDYWGQGTLVTVSS VL: EIVLTQSPATLSLSPGERATLSCSASSSVSYMYWYQQKPGQAPRPLIYRTSNLASGIPARFSGSGSGTDFTLTISSLEPEDFAVYYCQQYHSYPTFGGGTKVEIK",2.24
6,"SA302a HC-Y33aM (antibody, V domains shown) VH: QVQLQESGPGLVKPSQTLSLTCTVSGYSITSDMNAHWIRQPPGKGLEWIGYIHYSGSTNYNPSLKSRVTISRDTSKNQFSLKLSSVTAADTAVYYCARNYGSIYVNYFDYWGQGTLVTVSS VL: EIVLTQSPATLSLSPGERATLSCSASSSVSYMYWYQQKPGQAPRPLIYRTSNLASGIPARFSGSGSGTDFTLTISSLEPEDFAVYYCQQYHSYPTFGGGTKVEIK",3.05
7,"SA302a HC-N33bF (antibody, V domains shown) VH: QVQLQESGPGLVKPSQTLSLTCTVSGYSITSDYFAHWIRQPPGKGLEWIGYIHYSGSTNYNPSLKSRVTISRDTSKNQFSLKLSSVTAADTAVYYCARNYGSIYVNYFDYWGQGTLVTVSS VL: EIVLTQSPATLSLSPGERATLSCSASSSVSYMYWYQQKPGQAPRPLIYRTSNLASGIPARFSGSGSGTDFTLTISSLEPEDFAVYYCQQYHSYPTFGGGTKVEIK",5.24
8,"SA302a HC-Y33aE (antibody, V domains shown) VH: QVQLQESGPGLVKPSQTLSLTCTVSGYSITSDENAHWIRQPPGKGLEWIGYIHYSGSTNYNPSLKSRVTISRDTSKNQFSLKLSSVTAADTAVYYCARNYGSIYVNYFDYWGQGTLVTVSS VL: EIVLTQSPATLSLSPGERATLSCSASSSVSYMYWYQQKPGQAPRPLIYRTSNLASGIPARFSGSGSGTDFTLTISSLEPEDFAVYYCQQYHSYPTFGGGTKVEIK",8.65
9,"SA302a HC-N33bT (antibody, V domains shown) VH: QVQLQESGPGLVKPSQTLSLTCTVSGYSITSDYTAHWIRQPPGKGLEWIGYIHYSGSTNYNPSLKSRVTISRDTSKNQFSLKLSSVTAADTAVYYCARNYGSIYVNYFDYWGQGTLVTVSS VL: EIVLTQSPATLSLSPGERATLSCSASSSVSYMYWYQQKPGQAPRPLIYRTSNLASGIPARFSGSGSGTDFTLTISSLEPEDFAVYYCQQYHSYPTFGGGTKVEIK",1.63
10,"SA302a HC-N33bV (antibody, V domains shown) VH: QVQLQESGPGLVKPSQTLSLTCTVSGYSITSDYVAHWIRQPPGKGLEWIGYIHYSGSTNYNPSLKSRVTISRDTSKNQFSLKLSSVTAADTAVYYCARNYGSIYVNYFDYWGQGTLVTVSS VL: EIVLTQSPATLSLSPGERATLSCSASSSVSYMYWYQQKPGQAPRPLIYRTSNLASGIPARFSGSGSGTDFTLTISSLEPEDFAVYYCQQYHSYPTFGGGTKVEIK",1.36
11,"SA302a HC-N33bD (antibody, V domains shown) VH: QVQLQESGPGLVKPSQTLSLTCTVSGYSITSDYDAHWIRQPPGKGLEWIGYIHYSGSTNYNPSLKSRVTISRDTSKNQFSLKLSSVTAADTAVYYCARNYGSIYVNYFDYWGQGTLVTVSS VL: EIVLTQSPATLSLSPGERATLSCSASSSVSYMYWYQQKPGQAPRPLIYRTSNLASGIPARFSGSGSGTDFTLTISSLEPEDFAVYYCQQYHSYPTFGGGTKVEIK",1.03
12,"SA302a HC-Y33aL (antibody, V domains shown) VH: QVQLQESGPGLVKPSQTLSLTCTVSGYSITSDLNAHWIRQPPGKGLEWIGYIHYSGSTNYNPSLKSRVTISRDTSKNQFSLKLSSVTAADTAVYYCARNYGSIYVNYFDYWGQGTLVTVSS VL: EIVLTQSPATLSLSPGERATLSCSASSSVSYMYWYQQKPGQAPRPLIYRTSNLASGIPARFSGSGSGTDFTLTISSLEPEDFAVYYCQQYHSYPTFGGGTKVEIK",2.36
13,"SA302a HC-D33I (antibody, V domains shown) VH: QVQLQESGPGLVKPSQTLSLTCTVSGYSITSIYNAHWIRQPPGKGLEWIGYIHYSGSTNYNPSLKSRVTISRDTSKNQFSLKLSSVTAADTAVYYCARNYGSIYVNYFDYWGQGTLVTVSS VL: EIVLTQSPATLSLSPGERATLSCSASSSVSYMYWYQQKPGQAPRPLIYRTSNLASGIPARFSGSGSGTDFTLTISSLEPEDFAVYYCQQYHSYPTFGGGTKVEIK",4.97
14,"SA302a HC-D33H (antibody, V domains shown) VH: QVQLQESGPGLVKPSQTLSLTCTVSGYSITSHYNAHWIRQPPGKGLEWIGYIHYSGSTNYNPSLKSRVTISRDTSKNQFSLKLSSVTAADTAVYYCARNYGSIYVNYFDYWGQGTLVTVSS VL: EIVLTQSPATLSLSPGERATLSCSASSSVSYMYWYQQKPGQAPRPLIYRTSNLASGIPARFSGSGSGTDFTLTISSLEPEDFAVYYCQQYHSYPTFGGGTKVEIK",2.99
15,"SA302a HC-N33bY (antibody, V domains shown) VH: QVQLQESGPGLVKPSQTLSLTCTVSGYSITSDYYAHWIRQPPGKGLEWIGYIHYSGSTNYNPSLKSRVTISRDTSKNQFSLKLSSVTAADTAVYYCARNYGSIYVNYFDYWGQGTLVTVSS VL: EIVLTQSPATLSLSPGERATLSCSASSSVSYMYWYQQKPGQAPRPLIYRTSNLASGIPARFSGSGSGTDFTLTISSLEPEDFAVYYCQQYHSYPTFGGGTKVEIK",6.15
16,"SA302a HC-Y33aR (antibody, V domains shown) VH: QVQLQESGPGLVKPSQTLSLTCTVSGYSITSDRNAHWIRQPPGKGLEWIGYIHYSGSTNYNPSLKSRVTISRDTSKNQFSLKLSSVTAADTAVYYCARNYGSIYVNYFDYWGQGTLVTVSS VL: EIVLTQSPATLSLSPGERATLSCSASSSVSYMYWYQQKPGQAPRPLIYRTSNLASGIPARFSGSGSGTDFTLTISSLEPEDFAVYYCQQYHSYPTFGGGTKVEIK",8.72
17,"SA302a HC-N33bH (antibody, V domains shown) VH: QVQLQESGPGLVKPSQTLSLTCTVSGYSITSDYHAHWIRQPPGKGLEWIGYIHYSGSTNYNPSLKSRVTISRDTSKNQFSLKLSSVTAADTAVYYCARNYGSIYVNYFDYWGQGTLVTVSS VL: EIVLTQSPATLSLSPGERATLSCSASSSVSYMYWYQQKPGQAPRPLIYRTSNLASGIPARFSGSGSGTDFTLTISSLEPEDFAVYYCQQYHSYPTFGGGTKVEIK",2.91
18,"SA302a HC-D33N (antibody, V domains shown) VH: QVQLQESGPGLVKPSQTLSLTCTVSGYSITSNYNAHWIRQPPGKGLEWIGYIHYSGSTNYNPSLKSRVTISRDTSKNQFSLKLSSVTAADTAVYYCARNYGSIYVNYFDYWGQGTLVTVSS VL: EIVLTQSPATLSLSPGERATLSCSASSSVSYMYWYQQKPGQAPRPLIYRTSNLASGIPARFSGSGSGTDFTLTISSLEPEDFAVYYCQQYHSYPTFGGGTKVEIK",1.66
19,"SA302a HC-Y33aD (antibody, V domains shown) VH: QVQLQESGPGLVKPSQTLSLTCTVSGYSITSDDNAHWIRQPPGKGLEWIGYIHYSGSTNYNPSLKSRVTISRDTSKNQFSLKLSSVTAADTAVYYCARNYGSIYVNYFDYWGQGTLVTVSS VL: EIVLTQSPATLSLSPGERATLSCSASSSVSYMYWYQQKPGQAPRPLIYRTSNLASGIPARFSGSGSGTDFTLTISSLEPEDFAVYYCQQYHSYPTFGGGTKVEIK",10.5
20,"SA302a HC-Y33aS (antibody, V domains shown) VH: QVQLQESGPGLVKPSQTLSLTCTVSGYSITSDSNAHWIRQPPGKGLEWIGYIHYSGSTNYNPSLKSRVTISRDTSKNQFSLKLSSVTAADTAVYYCARNYGSIYVNYFDYWGQGTLVTVSS VL: EIVLTQSPATLSLSPGERATLSCSASSSVSYMYWYQQKPGQAPRPLIYRTSNLASGIPARFSGSGSGTDFTLTISSLEPEDFAVYYCQQYHSYPTFGGGTKVEIK",4.38
21,"SA302a HC-Y33aH (antibody, V domains shown) VH: QVQLQESGPGLVKPSQTLSLTCTVSGYSITSDHNAHWIRQPPGKGLEWIGYIHYSGSTNYNPSLKSRVTISRDTSKNQFSLKLSSVTAADTAVYYCARNYGSIYVNYFDYWGQGTLVTVSS VL: EIVLTQSPATLSLSPGERATLSCSASSSVSYMYWYQQKPGQAPRPLIYRTSNLASGIPARFSGSGSGTDFTLTISSLEPEDFAVYYCQQYHSYPTFGGGTKVEIK",4.11
22,"SA302a HC-Y33aN (antibody, V domains shown) VH: QVQLQESGPGLVKPSQTLSLTCTVSGYSITSDNNAHWIRQPPGKGLEWIGYIHYSGSTNYNPSLKSRVTISRDTSKNQFSLKLSSVTAADTAVYYCARNYGSIYVNYFDYWGQGTLVTVSS VL: EIVLTQSPATLSLSPGERATLSCSASSSVSYMYWYQQKPGQAPRPLIYRTSNLASGIPARFSGSGSGTDFTLTISSLEPEDFAVYYCQQYHSYPTFGGGTKVEIK",5.92
